This experiment deals with T1, CD94 monomeric Fc fusion protein (human, UniProt P0DOX5 223-449 = IgG part).
T1 construct: also called huFc(hole)-CD94-ECD and huFc(knob); human CD94 monomeric Fc fusion protein antigen
The experiment in a line: phage display panning on coated CD94 monomeric Fc fusion protein, then ELISA. Here is the method: Briefly, immunotubes were coated with 10 μg/ml of the antigene CD94 monomeric Fc fusion protein prepared above, blocked with phosphate buffered saline (MPBS) comprising 3% […] for 2 hours at room temperature. In order to screen for antibodies that specifically bind to CD94, the phage library was added to the immunotubes coated with the antigen CD94 monomeric Fc fusion protein and bound for 1.5 hours. The non-specific phages were then washed away, and the bound phages were eluted with 100 mM triethylamine and infected E. coli TG1 in logarithmic growth phase. Expanded culture of the eluted phages, and the expanded phage library was purified using PEG/NaCl precipitation for the next round of screening.
A total of three rounds of screening were performed, and 9 positive clones that specifically bind to CD94 were obtained after three rounds of screening. These clones were subsequently subjected to ELISA and sequencing analysis, two unique sequences were selected, 2B1 and 2F1, respectively. The ELISA results are shown in FIG. 2 (NA is the blank control group).
(In general: In an ELISA, binding on a coated surface is turned into a signal by an enzyme label.)

B1: 2B1 (Fab, V domains shown)
VH: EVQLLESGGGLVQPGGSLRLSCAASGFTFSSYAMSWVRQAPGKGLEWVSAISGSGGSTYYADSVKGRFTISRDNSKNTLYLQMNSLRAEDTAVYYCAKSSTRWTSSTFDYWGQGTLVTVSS
VL: DIQMTQSPSTLSASVGDRVTITCRASQSISSWLAWYQQKPGKAPKLLIYDASSLESGVPSRFSGSGSGTEFTLTISSLQPDDFATYYCQQYYFYPYTFGQGTKVEIKR
notes: Clone from a fully human Fab phage display library; also called antibody 2B1; CD94-specific antibody
With B1, the binding result is “binds”.

Values taken from US20240131065A1 (CRAGE MEDICAL, published 2024).
